This note sets out measurements from patent US20050138692A1.

Values joined by “and” are separate entries in the source; they are usually repeats but may differ in a detail not shown here. Equal entries are not always repeated.

In the assay the target is native Ag GA733-2 on colorectal carcinoma cell line SW948 (human) (UniProt P16422). In words: cell ELISA on fixed SW948 cells, antibody at 0.93 ug/ml.
Sequence of UniProt P16422 (P16422 24-314): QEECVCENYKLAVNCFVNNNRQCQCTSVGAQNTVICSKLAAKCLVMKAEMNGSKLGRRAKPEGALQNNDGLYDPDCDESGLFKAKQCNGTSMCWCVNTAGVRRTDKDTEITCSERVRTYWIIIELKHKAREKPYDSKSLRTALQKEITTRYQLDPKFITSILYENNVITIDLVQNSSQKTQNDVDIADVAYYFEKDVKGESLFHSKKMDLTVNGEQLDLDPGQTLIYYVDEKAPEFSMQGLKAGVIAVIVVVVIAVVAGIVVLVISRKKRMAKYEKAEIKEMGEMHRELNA

As to “MAb CO17-1A purified from the hybridoma supernatant (antibody)”, the absorbance (absorbance (OD)) is 0.933 and 0.896.
